B1: hIL-15 V49R/D30A (ligand)
chain: NWVNVISDLKKIEDLIQSMHIDATLYTESAVHPSCKVTAMKCFLLELQRISLESGDASIHDTVENLIILANNSLSSNGNVTESGCKECEELEEKNIKEFLQSFVHIVQMFINTGGGGSGHHHHHHHHGGGLNDIFEAQKIEWHE
B2: hIL-15 V49R/D30K (ligand)
chain: NWVNVISDLKKIEDLIQSMHIDATLYTESKVHPSCKVTAMKCFLLELQRISLESGDASIHDTVENLIILANNSLSSNGNVTESGCKECEELEEKNIKEFLQSFVHIVQMFINTGGGGSGHHHHHHHHGGGLNDIFEAQKIEWHE
B3: hIL-15 V49R/L69Y (ligand)
chain: NWVNVISDLKKIEDLIQSMHIDATLYTESDVHPSCKVTAMKCFLLELQRISLESGDASIHDTVENLIIYANNSLSSNGNVTESGCKECEELEEKNIKEFLQSFVHIVQMFINTGGGGSGHHHHHHHHGGGLNDIFEAQKIEWHE
B4: hIL-15 V49R/I68G (ligand)
chain: NWVNVISDLKKIEDLIQSMHIDATLYTESDVHPSCKVTAMKCFLLELQRISLESGDASIHDTVENLIGLANNSLSSNGNVTESGCKECEELEEKNIKEFLQSFVHIVQMFINTGGGGSGHHHHHHHHGGGLNDIFEAQKIEWHE
B5: hIL-15 V49R/N4F (ligand)
chain: NWVFVISDLKKIEDLIQSMHIDATLYTESDVHPSCKVTAMKCFLLELQRISLESGDASIHDTVENLIILANNSLSSNGNVTESGCKECEELEEKNIKEFLQSFVHIVQMFINTGGGGSGHHHHHHHHGGGLNDIFEAQKIEWHE
B6: hIL-15 V49R/D30L (ligand)
chain: NWVNVISDLKKIEDLIQSMHIDATLYTESLVHPSCKVTAMKCFLLELQRISLESGDASIHDTVENLIILANNSLSSNGNVTESGCKECEELEEKNIKEFLQSFVHIVQMFINTGGGGSGHHHHHHHHGGGLNDIFEAQKIEWHE
B7: hIL-15 V49R/D30M (ligand)
chain: NWVNVISDLKKIEDLIQSMHIDATLYTESMVHPSCKVTAMKCFLLELQRISLESGDASIHDTVENLIILANNSLSSNGNVTESGCKECEELEEKNIKEFLQSFVHIVQMFINTGGGGSGHHHHHHHHGGGLNDIFEAQKIEWHE
B8: hIL-15 V49R/D30I (ligand)
chain: NWVNVISDLKKIEDLIQSMHIDATLYTESIVHPSCKVTAMKCFLLELQRISLESGDASIHDTVENLIILANNSLSSNGNVTESGCKECEELEEKNIKEFLQSFVHIVQMFINTGGGGSGHHHHHHHHGGGLNDIFEAQKIEWHE
B9: hIL-15 V49R/H32W (ligand)
chain: NWVNVISDLKKIEDLIQSMHIDATLYTESDVWPSCKVTAMKCFLLELQRISLESGDASIHDTVENLIILANNSLSSNGNVTESGCKECEELEEKNIKEFLQSFVHIVQMFINTGGGGSGHHHHHHHHGGGLNDIFEAQKIEWHE
B10: hIL-15 V49R/L69N (ligand)
chain: NWVNVISDLKKIEDLIQSMHIDATLYTESDVHPSCKVTAMKCFLLELQRISLESGDASIHDTVENLIINANNSLSSNGNVTESGCKECEELEEKNIKEFLQSFVHIVQMFINTGGGGSGHHHHHHHHGGGLNDIFEAQKIEWHE
B11: hIL-15 V49R/K11M (ligand)
chain: NWVNVISDLKMIEDLIQSMHIDATLYTESDVHPSCKVTAMKCFLLELQRISLESGDASIHDTVENLIILANNSLSSNGNVTESGCKECEELEEKNIKEFLQSFVHIVQMFINTGGGGSGHHHHHHHHGGGLNDIFEAQKIEWHE
B12: hIL-15 V49R/D30H (ligand)
chain: NWVNVISDLKKIEDLIQSMHIDATLYTESHVHPSCKVTAMKCFLLELQRISLESGDASIHDTVENLIILANNSLSSNGNVTESGCKECEELEEKNIKEFLQSFVHIVQMFINTGGGGSGHHHHHHHHGGGLNDIFEAQKIEWHE
B13: hIL-15 V49R/L69R (ligand)
chain: NWVNVISDLKKIEDLIQSMHIDATLYTESDVHPSCKVTAMKCFLLELQRISLESGDASIHDTVENLIIRANNSLSSNGNVTESGCKECEELEEKNIKEFLQSFVHIVQMFINTGGGGSGHHHHHHHHGGGLNDIFEAQKIEWHE
B14: hIL-15 V49R/I68W (ligand)
chain: NWVNVISDLKKIEDLIQSMHIDATLYTESDVHPSCKVTAMKCFLLELQRISLESGDASIHDTVENLIWLANNSLSSNGNVTESGCKECEELEEKNIKEFLQSFVHIVQMFINTGGGGSGHHHHHHHHGGGLNDIFEAQKIEWHE
B15: hIL-15 V49R/D30F (ligand)
chain: NWVNVISDLKKIEDLIQSMHIDATLYTESFVHPSCKVTAMKCFLLELQRISLESGDASIHDTVENLIILANNSLSSNGNVTESGCKECEELEEKNIKEFLQSFVHIVQMFINTGGGGSGHHHHHHHHGGGLNDIFEAQKIEWHE
B16: hIL-15 V49R/I68Q (ligand)
chain: NWVNVISDLKKIEDLIQSMHIDATLYTESDVHPSCKVTAMKCFLLELQRISLESGDASIHDTVENLIQLANNSLSSNGNVTESGCKECEELEEKNIKEFLQSFVHIVQMFINTGGGGSGHHHHHHHHGGGLNDIFEAQKIEWHE
B17: hIL-15 V49R/S7P (ligand)
chain: NWVNVIPDLKKIEDLIQSMHIDATLYTESDVHPSCKVTAMKCFLLELQRISLESGDASIHDTVENLIILANNSLSSNGNVTESGCKECEELEEKNIKEFLQSFVHIVQMFINTGGGGSGHHHHHHHHGGGLNDIFEAQKIEWHE
B18: hIL-15 V49R/L69F (ligand)
chain: NWVNVISDLKKIEDLIQSMHIDATLYTESDVHPSCKVTAMKCFLLELQRISLESGDASIHDTVENLIIFANNSLSSNGNVTESGCKECEELEEKNIKEFLQSFVHIVQMFINTGGGGSGHHHHHHHHGGGLNDIFEAQKIEWHE
B19: hIL-15 V49R/L69H (ligand)
chain: NWVNVISDLKKIEDLIQSMHIDATLYTESDVHPSCKVTAMKCFLLELQRISLESGDASIHDTVENLIIHANNSLSSNGNVTESGCKECEELEEKNIKEFLQSFVHIVQMFINTGGGGSGHHHHHHHHGGGLNDIFEAQKIEWHE
B20: hIL-15 V49R/H32T (ligand)
chain: NWVNVISDLKKIEDLIQSMHIDATLYTESDVTPSCKVTAMKCFLLELQRISLESGDASIHDTVENLIILANNSLSSNGNVTESGCKECEELEEKNIKEFLQSFVHIVQMFINTGGGGSGHHHHHHHHGGGLNDIFEAQKIEWHE
B21: hIL-15 V49R/I68E (ligand)
chain: NWVNVISDLKKIEDLIQSMHIDATLYTESDVHPSCKVTAMKCFLLELQRISLESGDASIHDTVENLIELANNSLSSNGNVTESGCKECEELEEKNIKEFLQSFVHIVQMFINTGGGGSGHHHHHHHHGGGLNDIFEAQKIEWHE
B22: hIL-15 V49R/K11F (ligand)
chain: NWVNVISDLKFIEDLIQSMHIDATLYTESDVHPSCKVTAMKCFLLELQRISLESGDASIHDTVENLIILANNSLSSNGNVTESGCKECEELEEKNIKEFLQSFVHIVQMFINTGGGGSGHHHHHHHHGGGLNDIFEAQKIEWHE
B23: hIL-15 V49R/N4T (ligand)
chain: NWVTVISDLKKIEDLIQSMHIDATLYTESDVHPSCKVTAMKCFLLELQRISLESGDASIHDTVENLIILANNSLSSNGNVTESGCKECEELEEKNIKEFLQSFVHIVQMFINTGGGGSGHHHHHHHHGGGLNDIFEAQKIEWHE
B24: hIL-15 V49R/N4P (ligand)
chain: NWVPVISDLKKIEDLIQSMHIDATLYTESDVHPSCKVTAMKCFLLELQRISLESGDASIHDTVENLIILANNSLSSNGNVTESGCKECEELEEKNIKEFLQSFVHIVQMFINTGGGGSGHHHHHHHHGGGLNDIFEAQKIEWHE
B25: hIL-15 V49R/D30W (ligand)
chain: NWVNVISDLKKIEDLIQSMHIDATLYTESWVHPSCKVTAMKCFLLELQRISLESGDASIHDTVENLIILANNSLSSNGNVTESGCKECEELEEKNIKEFLQSFVHIVQMFINTGGGGSGHHHHHHHHGGGLNDIFEAQKIEWHE
B26: hIL-15 V49R/D30E (ligand)
chain: NWVNVISDLKKIEDLIQSMHIDATLYTESEVHPSCKVTAMKCFLLELQRISLESGDASIHDTVENLIILANNSLSSNGNVTESGCKECEELEEKNIKEFLQSFVHIVQMFINTGGGGSGHHHHHHHHGGGLNDIFEAQKIEWHE
B27: hIL-15 V49R/L69Q (ligand)
chain: NWVNVISDLKKIEDLIQSMHIDATLYTESDVHPSCKVTAMKCFLLELQRISLESGDASIHDTVENLIIQANNSLSSNGNVTESGCKECEELEEKNIKEFLQSFVHIVQMFINTGGGGSGHHHHHHHHGGGLNDIFEAQKIEWHE
B28: hIL-15 V49R/D30N (ligand)
chain: NWVNVISDLKKIEDLIQSMHIDATLYTESNVHPSCKVTAMKCFLLELQRISLESGDASIHDTVENLIILANNSLSSNGNVTESGCKECEELEEKNIKEFLQSFVHIVQMFINTGGGGSGHHHHHHHHGGGLNDIFEAQKIEWHE
B29: hIL-15 V49R/N4R (ligand)
chain: NWVRVISDLKKIEDLIQSMHIDATLYTESDVHPSCKVTAMKCFLLELQRISLESGDASIHDTVENLIILANNSLSSNGNVTESGCKECEELEEKNIKEFLQSFVHIVQMFINTGGGGSGHHHHHHHHGGGLNDIFEAQKIEWHE

How the values were obtained:
[1] = biological target: T1, human IL-2Rβ (human, UniProt P14784 27-240, limits assumed); assay: SPR, steady state
T1 construct: also called hIL-2Rβ; IL-2 receptor beta
T1 sequence (looked up): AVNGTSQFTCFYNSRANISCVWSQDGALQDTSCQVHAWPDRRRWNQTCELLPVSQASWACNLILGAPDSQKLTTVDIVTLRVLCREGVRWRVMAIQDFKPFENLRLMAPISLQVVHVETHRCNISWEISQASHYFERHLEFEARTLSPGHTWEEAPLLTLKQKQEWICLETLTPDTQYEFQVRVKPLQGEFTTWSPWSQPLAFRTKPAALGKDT

[2] = biological target: T2, human IL-15Rα (human, UniProt Q13261 31-205, limits assumed); assay: SPR, steady state
T2 construct: also called hIL-15Rα; IL-15 receptor alpha
T2 sequence (Q13261 31-205 limits assumed): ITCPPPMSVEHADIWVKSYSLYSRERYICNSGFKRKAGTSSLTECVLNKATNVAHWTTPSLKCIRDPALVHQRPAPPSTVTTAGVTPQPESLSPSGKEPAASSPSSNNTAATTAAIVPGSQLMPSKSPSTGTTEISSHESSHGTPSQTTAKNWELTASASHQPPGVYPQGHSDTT

Row | Binder | Kd [1] [nM] | Kd [2] [nM]
1 | B1 | 273 | 151
2 | B2 | 351 | 158
3 | B3 | – | 137
4 | B4 | – | 101
5 | B5 | 247 | –
6 | B6 | 277 | 237
7 | B7 | 238 | 142
8 | B8 | 201 | 197
9 | B9 | 376 | –
10 | B10 | – | 44
11 | B11 | 180 | –
12 | B12 | 149 | 121
13 | B13 | – | 111
14 | B14 | – | 93.7
15 | B15 | 213 | 166
16 | B16 | – | 132
17 | B17 | – | > 500
18 | B18 | – | 106
19 | B19 | – | 54.5
20 | B20 | 186 | –
21 | B21 | – | 122
22 | B22 | 162 | –
23 | B23 | – | ~88.6
24 | B24 | – | 356
25 | B25 | 321 | –
26 | B26 | 165 | 124
27 | B27 | – | ~43.3
28 | B28 | 163 | 94
29 | B29 | – | 56.1

Reference: US20210324028A1 (Pfizer, published 2021)
